Measurements as given in patent publication US5980890A, “Purification and characterization of alkaline phosphates from Thermotoga neapolitana” (Michigan State University, priority 1997, dated 1999).
Where a name gives a salt, the structure may show the parent alone.

Experiments:
[1] = target: T1, Thermotoga neapolitana (DSM 5068) alkaline phosphatase, purified native enzyme (Thermotoga neapolitana, UniProt B9K6X5); assay: biochemical; settings: 1 h, read-out: original activity detected after exhaustive treatment with EDTA
T1 sequence (B9K6X5 23-436): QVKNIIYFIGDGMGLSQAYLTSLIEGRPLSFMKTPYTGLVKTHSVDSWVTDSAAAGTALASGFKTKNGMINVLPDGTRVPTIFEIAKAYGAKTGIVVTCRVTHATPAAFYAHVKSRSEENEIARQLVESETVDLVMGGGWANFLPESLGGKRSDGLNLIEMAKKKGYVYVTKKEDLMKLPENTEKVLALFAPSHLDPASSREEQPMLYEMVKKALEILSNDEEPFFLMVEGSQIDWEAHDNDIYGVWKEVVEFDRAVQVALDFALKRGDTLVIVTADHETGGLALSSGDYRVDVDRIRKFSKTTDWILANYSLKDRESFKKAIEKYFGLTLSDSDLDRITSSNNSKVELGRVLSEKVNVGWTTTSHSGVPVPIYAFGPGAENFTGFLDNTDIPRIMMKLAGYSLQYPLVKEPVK
Protocol: The initial linear change in the absorbance at 410 nm was detected by recording spectrophotometer (Cary 219, U.S.A.), thermostated at 60° C. One enzyme activity unit represents the hydrolysis of 1 μl mole of substrate per min under these standard assay condition.
The purified alkaline phosphatase in Buffer A was incubated at room temperature for 1 h in the presence of EDTA at 0.0-5.0 mM concentration respectively. The residual enzyme activity was assayed under standard conditions.
For metal ion treatment, 10 mM EDTA was added into a tube containing the purified alkaline phosphatase in Buffer A. After 1 h, the mixture was dialyzed against Buffer A containing 2 mM EDTA and then three times against Buffer A without EDTA. Subsequently, 2 mM of different metal ions were added to the deionized enzyme solutions, and the mixtures were incubated for 1 h at room temperature. For a comparison, 2 mM of various metal ions were added directly to purified protein and incubated under the same conditions. All the metal ions used were in chloride form. The enzyme activity was assayed under standard conditions.

[2] = substrate: O=[N+]([O-])c1ccc(OP(=O)(O)O)cc1; assay: purified protein, by the assay type; settings: other: p-nitrophenyl phosphate as substrate, optimal temperature and pH conditions (85° C., pH 9.9)

Work on `O=C(O)CN(CCN(CC(=O)O)CC(=O)O)CC(=O)O` [EDTA, Ethylenediamine tetraacetic acid disodium salt] yielded an activity at 10000 µM [1] of about 5%.

B1: Thermotoga neapolitana (DSM 5068) alkaline phosphatase, purified native enzyme (Thermotoga neapolitana DSM 4359) (protein)
chain: T1 sequence (B9K6X5 23-436)
Molecule B1 has a Km [2] of 183 µM and a Vmax [2] of 1352 U/mg.
